# What was measured:
# human C1q = human C1q (Homo sapiens, UniProt P02745+P02746+P02747); experiment: ELISA for C1q binding
# Protocol: Ninety-six-well plates (Nunc, Roskilde, Denmark) were coated with serial dilution of the Abs (6.0-0.09 mg/ml) and incubated overnight at 4° C. followed by washing three times with PBS/Tween (pH 7.4). The wells were blocked with 4% skimmed milk (Neogen Europe, Auchincruive, U.K.) for 1 h at room temperature and then washed in PBS/Tween (pH 6.0). Purified hFcRn-GST or pFcRn-GST (1 mg/ml) were diluted in 4% skimmed milk in PBS/Tween (pH 6.0) and preincubated with an HRP-conjugated anti-GST Ab (GE Healthcare U.K., Buckinghamshire, U.K.) diluted 1:5000 and added to the wells. The plates were incubated for 1 h at room temperature and washed with PBS/Tween (pH 6.0). Bound receptor was detected by adding 100 ml of 3,39,5,59-tetramethylbenzidine substrate (Calbiochem-Novabiochem, Nottingham, U.K.). The absorbance was measured at 450 nm using a Sunrise TECAN spectrophotometer. The assay described above was also performed using PBS/Tween (pH 7.4) in all steps. The same setup was used with GST-fused versions of hFcgRI, hFcgRIIa (allotype His131), hFcgRIIb, hFcgRIIIa (allotype Val158), and hFcgRIIIb (1 mg/ml each). In addition, a biotinylated human C1q (hC1 q; 4 mg/ml) preparation was incubated with the Abs and detected using ALP-conjugated streptavidin (GE Healthcare). Absorbance was measured at 405 nm.
# factor D = factor D (Homo sapiens, UniProt P00746); details: cited from earlier work
# Chain of factor D (P00746 26-253): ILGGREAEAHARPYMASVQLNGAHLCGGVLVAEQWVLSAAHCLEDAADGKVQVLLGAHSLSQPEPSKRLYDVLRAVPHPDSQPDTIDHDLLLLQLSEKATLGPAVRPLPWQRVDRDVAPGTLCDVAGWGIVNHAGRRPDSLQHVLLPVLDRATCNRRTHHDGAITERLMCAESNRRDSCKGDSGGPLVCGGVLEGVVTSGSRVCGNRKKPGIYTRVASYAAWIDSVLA
# Chain of human C1q (P02745 23-245): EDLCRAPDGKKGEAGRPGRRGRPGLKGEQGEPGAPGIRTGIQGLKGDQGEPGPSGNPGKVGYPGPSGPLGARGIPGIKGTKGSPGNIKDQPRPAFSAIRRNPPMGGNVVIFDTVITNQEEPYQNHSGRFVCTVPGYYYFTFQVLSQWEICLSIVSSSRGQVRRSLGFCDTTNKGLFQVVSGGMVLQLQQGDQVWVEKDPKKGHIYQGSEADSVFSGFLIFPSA
# Chain of human C1q (P02746 28-253): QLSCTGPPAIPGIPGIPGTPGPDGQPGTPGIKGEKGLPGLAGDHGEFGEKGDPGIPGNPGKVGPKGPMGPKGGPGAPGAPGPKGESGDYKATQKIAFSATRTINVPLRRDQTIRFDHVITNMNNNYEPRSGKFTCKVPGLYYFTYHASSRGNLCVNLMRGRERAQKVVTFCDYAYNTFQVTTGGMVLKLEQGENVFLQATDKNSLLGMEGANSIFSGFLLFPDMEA
# Chain of human C1q (P02747 29-245): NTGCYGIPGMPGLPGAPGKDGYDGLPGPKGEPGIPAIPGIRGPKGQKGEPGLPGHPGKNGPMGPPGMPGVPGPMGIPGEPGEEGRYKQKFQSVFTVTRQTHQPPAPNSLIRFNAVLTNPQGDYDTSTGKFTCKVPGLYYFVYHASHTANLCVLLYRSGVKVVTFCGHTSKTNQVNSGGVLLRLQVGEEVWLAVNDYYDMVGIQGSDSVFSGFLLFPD
Compound,binding to C1q (human C1q),IC50 (factor D) [nM]
"rituximab: humanized anti-CD20 IgG1 Ab from Roche, control for ELISA-based binding studies",did so in a dose-dependent manner,–
N=C(N)c1cc2ccc(OC(=O)c3cccs3)cc2s1 [BCX-1470],–,96
